The results in this text go back to paper PMC6542021.

The target of test [1] is FcγRIII CD16 on NK cells (human (endogenous in NK cells of healthy donors)) (UniProt P08637). In words: FACS; NK cells within PBMC. In general terms: In flow cytometry, cells or beads pass a laser one at a time.
Test [2] has the same target. In words: flow cytometry on cells; PBMC of healthy donors incubated with the indicated concentrations of NKG2D-Fc-ADCC, followed by an anti-human PE conjugate; EC50 from MFI by a sigmoidal dose-response curve (GraphPad Prism); one representative experiment of three.
Test [3] addresses CD3 (Homo sapiens). In words: FACS; T cells within PBMC. The following applies: other; Only the NKG2D limits and the CH2 changes are printed. UCHT1 VH/VL are taken from the 1XIW scFv complex (entity order VL=3, VH=4 from memory). Human CH1/hinge and human C-kappa are assumed (KappaSelect purification, anti-human PE detection). CH2 end (EU 340) is by convention. G236 (P01857 119) is deleted; EU number = P01857 number + 117. Junction residues are not printed. Fab interchain disulfide; modification not given.

Sequence of UniProt P08637 (P08637 17-254): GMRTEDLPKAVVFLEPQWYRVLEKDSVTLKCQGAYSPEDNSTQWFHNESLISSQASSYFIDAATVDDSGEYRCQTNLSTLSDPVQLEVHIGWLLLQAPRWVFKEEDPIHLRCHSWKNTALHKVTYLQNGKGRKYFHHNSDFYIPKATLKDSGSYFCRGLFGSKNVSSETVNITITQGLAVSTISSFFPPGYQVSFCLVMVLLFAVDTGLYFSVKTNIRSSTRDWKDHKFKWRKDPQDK
Sequence of CD3 (Homo sapiens) (P07766 23-207, chain 1 of 3): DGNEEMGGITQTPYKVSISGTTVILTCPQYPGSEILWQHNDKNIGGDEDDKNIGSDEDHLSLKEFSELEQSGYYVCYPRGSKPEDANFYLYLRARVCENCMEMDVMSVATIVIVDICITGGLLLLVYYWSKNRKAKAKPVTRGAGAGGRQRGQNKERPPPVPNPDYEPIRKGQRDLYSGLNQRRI
Sequence of CD3 (Homo sapiens) (P04234 22-171, chain 2 of 3, further chain): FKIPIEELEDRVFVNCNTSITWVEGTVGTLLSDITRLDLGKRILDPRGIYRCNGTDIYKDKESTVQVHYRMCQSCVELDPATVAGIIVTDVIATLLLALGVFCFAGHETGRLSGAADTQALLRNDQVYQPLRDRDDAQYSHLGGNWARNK
Sequence of CD3 (Homo sapiens) (P09693 23-182, chain 3 of 3, further chain): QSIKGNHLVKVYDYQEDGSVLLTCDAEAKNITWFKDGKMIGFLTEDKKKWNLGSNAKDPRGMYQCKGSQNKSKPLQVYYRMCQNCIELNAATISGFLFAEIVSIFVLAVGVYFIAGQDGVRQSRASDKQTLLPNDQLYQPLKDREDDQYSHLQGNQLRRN

In the case of “NKG2D-CD16 bispecific fusion protein (from UniProt P26718 78-216)”, in test [1], the EC50 (usually the concentration needed to bring the measured effect to its halfway point) is 2.2 nM.

For the molecule “NKG2D-Fc-ADCC fusion protein (from UniProt P26718 73-216) (Fc fusion)”, the EC50 in test [2] amounted to 20 nM.

B1: NKG2D-CD3 bispecific fusion protein, P26718 78-216 (protein)
chain 1: EVQLQQSGPELVKPGASMKISCKASGYSFTGYTMNWVKQSHGKNLEWMGLINPYKGVSTYNQKFKDKATLTVDKSSSTAYMELLSLTSEDSAVYYCARSGYYGDSDWYFDVWGQGTTLTVFSASTKGPSVFPLAPSSKSTSGGTAALGCLVKDYFPEPVTVSWNSGALTSGVHTFPAVLQSSGLYSLSSVVTVPSSSLGTQTYICNVNHKPSNTKVDKKVEPKSCDKTHTSPPSPAPPVAGPSVFLFPPKPKDTLMISRTPEVTCVVVGVSHEDPEVKFNWYVDGVEVHNAKTKPREEQYQSTYRVVSVLTVLHQDWLNGKEYKCKVSNKQLPSPIEKTISKAKFLNSLFNQEVQIPLTESYCGPCPKNWICYKNNCYQFFDESKNWYESQASCMSQNASLLKVYSKEDQDLLKLVKSYHWMGLVHIPTNGSWQWEDGSILSPNLLTIIEMQKGDCALYASSFKGYIENCSTPNTYICMQRTV
chain 2: MDIQMTQTTSSLSASLGDRVTISCRASQDIRNYLNWYQQKPDGTVKLLIYYTSRLHSGVPSKFSGSGSGTDYSLTISNLEQEDIATYFCQQGNTLPWTFAGGTKLEIKRTVAAPSVFIFPPSDEQLKSGTASVVCLLNNFYPREAKVQWKVDNALQSGNSQESVTEQDSKDSTYSLSSTLTLSKADYEKHKVYACEVTHQGLSSPVTKSFNRGEC
With B1, in test [3], the EC50 worked out at 2.1 nM.
